Experiments:
[1] = molecular target: Plasmodium falciparum Hsp70-x (PfHsp70-x), full-length construct aa 25-679 (P. falciparum, UniProt K7NTP5 25-679); experiment: cell-based or functional assay
[2] = molecular target: T1, human heat shock cognate protein 70 (Hsc70), full length (human, UniProt P11142 1-646); experiment: NMR titration; 15N-labelled PFA0660wJ titrated with unlabelled chaperone; HSQC peak intensity changes; 25°C; 20 mM sodium phosphate pH 7.4, 150 mM NaCl, 2 mM DTT; details: both partners purified
T1 construct: also called HSPA8; heat shock protein family A (hspa) member 8
T1 sequence (P11142 whole entry): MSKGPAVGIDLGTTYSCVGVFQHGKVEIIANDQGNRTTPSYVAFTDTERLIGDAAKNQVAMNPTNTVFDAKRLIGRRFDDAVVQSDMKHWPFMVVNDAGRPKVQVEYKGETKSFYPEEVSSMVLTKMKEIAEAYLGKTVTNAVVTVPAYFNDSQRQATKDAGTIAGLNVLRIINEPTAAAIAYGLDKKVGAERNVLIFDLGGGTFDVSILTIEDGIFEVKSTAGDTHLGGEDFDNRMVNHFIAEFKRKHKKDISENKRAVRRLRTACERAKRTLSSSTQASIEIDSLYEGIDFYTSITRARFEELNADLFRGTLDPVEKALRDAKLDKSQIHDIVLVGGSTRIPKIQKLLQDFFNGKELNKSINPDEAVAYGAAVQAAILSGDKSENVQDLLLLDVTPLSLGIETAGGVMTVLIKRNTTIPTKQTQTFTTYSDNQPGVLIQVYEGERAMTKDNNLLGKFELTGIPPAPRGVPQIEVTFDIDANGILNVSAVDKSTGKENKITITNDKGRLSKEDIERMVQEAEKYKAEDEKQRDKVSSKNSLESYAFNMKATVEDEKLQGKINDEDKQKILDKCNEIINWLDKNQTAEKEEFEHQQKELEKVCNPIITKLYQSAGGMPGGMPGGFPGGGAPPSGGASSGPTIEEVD

B1: J-domain of P. falciparum Hsp40 cochaperone PFA0660w (PFA0660wJ), aa 81-148 (domain or fragment, UniProt Q8I2E1 81-148, looked up)
chain: MDYYTLLGVDKGCSEDDLRRAYLKLAMKWHPDKHVNKGSKVEAEEKFKNICEAYSVLSDNEKRVKYDL
notes: PFA0660w, P. falciparum, pf3d7_0113700, UniProt Q8I2E1, J-domain aa 81-148; codon-optimized synthetic DNA; 15N-labelled (or 13C,15N-labelled) in the NMR assays; unlabelled in the ATP hydrolysis assays; also called PFA0660w J-domain; not shown: His6, N-terminal, cleaved
- fold change in ATP hydrolysis activity of PfHsp70-x upon titration of the J-domain (5 μM chaperone) [1]: ~2 fold
- binding result [2]: binds

Reference: publication PMC6894070, “The Plasmodium falciparum Hsp70-x chaperone assists the heat stress response of the malaria parasite” (The FASEB Journal, 2019)
